Data set [1] is described as follows: Stability of proenkephalin fragments and enkephalins ex vivo (plasma, liquor). The data set is classed as in vitro ADME. The source says: In one embodiment the invention is based on and uses the discovered long term stability of proenkephalin and enkephalin-fp ex vivo in plasma (FIG. 3a). […] Proenkephalin and enkephalin-fp are stable as well in liquor.
The subject of data set [2] is B- and T-lymphocytes. The settings on record: cited from earlier work.
Data set [3] relates to gram-positive bacteria like Streptococcus aureus, Bacillus megaterium and Micrococcus luteus. The settings on record: cited from earlier work.
For data set [4], the system named is gram-negative bacteria like Escherichia coli. The settings on record: cited from earlier work.
Data set [5] is described as follows: In vivo half-life.

Ends that are not written are not given here.

A word on the half-life: it is the time in which the quantity being followed falls by half. Low values mean fast loss, high ones slow loss.

The molecule “DAEEDDSLANSSDLLKELLETGDNRERSHHQDGSDNEEEVS [enkephalin-fp]” registered a half-life in data set [1] (ex vivo in plasma) of over 24 h. The stability in liquor entry in data set [1] is “stable”.

As to methionine enkephalin [Met-ENK], in data set [2], the proliferation result is recorded as “stimulates the proliferation”.

B1: Synenkephalin: PENK-A derived peptide with antibacterial properties (peptide, UniProt P01210 25-97, looked up)
Synenkephalin: ECSQDCATCSYRLVRPADINFLACVMECEGKLPSLKIWETCKELLQLSKPELPQDGTSTLRENSKPEESHLLA
modifications: Synenkephalin
For B1, the antibacterial function entry in data set [3] is on record as “antibacterial properties”. Further, the “antibacterial function / growth inhibition” value in data set [4] was “antibacterial properties”.

B2: proenkephalin: precursor of the enkephalins, Sequence ID 1, including its fragments (protein)
chain: ECSQDCATCSYRLVRFADINFLACVMECEGKLPSLKIWETCKELLQLSKPELPQDGTSTLRENSKPEESHLLAKRYGGFMKRYGGFMKKMDELYPMEPEEEANGSEILAKRYGGFMKKNAEEDDSLANSSDLLKELLETGDNRERSHHQDGSDNEEEVSKRYGGFMRGLKRSPQLEDEAKELQKRYGGFMRRVGRPEWWMDYQKRYGGFLKRFAEALPSDEEGESYSKEVPEMEKRYGGFMRF
Regarding B2, the stability in liquor result in data set [1] was “stable”. Further, the in vivo half-life result in data set [5] is recorded as “about 24 hours”.

(Values after patent US8013123B2 (B.R.A.H.M.S. GmbH, priority 2004, dated 2011).)
